Measured values published in patent US20240181022A1, “AMURINS LYSINS, AND LYSIN-ANTIMICROBIAL PEPTIDE (AMP) CONSTRUCTS ACTIVE AGAINST GRAM-NEGATIVE BACTERIA” (priority 2021, published 2024).

Key:
E. cloacae [1] = test: Checkerboard synergy assay (FICI) against E. cloacae; type: cell-based, Enterobacter cloacae; settings: E. cloacae ATCC 13047
Description: Any known method to assess MIC may be used.
Checkerboards are constructed by first preparing columns of e.g., a 96-well polypropylene microtiter plate, wherein each well has the same amount of antibiotic diluted 2-fold along the horizontal axis. […] Bacteria are added to the drug combinations at concentrations of 1×10^5 […] in CAA, for example, with or without human serum or pulmonary surfactant. […] Summation fractional inhibitory concentrations (ΣFICs) are calculated for each drug and the minimum ΣFIC value (ΣFICmin) is used to determine the effect of the Chp peptide/antibiotic combination.
GN370 was further tested in combination with up to seven additional antibiotics (in addition to meropenem) against a variety of bacterial strains, including P. aeruginosa, A. baumannii, E. coli, E. cloacae, and K. pneumoniae. GN370 and the subject antibiotics were tested in a checkerboard assay format, and FICI values were determined, wherein ≤0.5 indicates synergy, >0.5-≤1 indicates additive; and >1 indicates indifferent.

[2] = test system: Raoultella ornithinolytica; test: MIC by broth microdilution against Raoultella ornithinolytica; type: cell-based; settings: N 1
Description: (§1) MIC values were determined by broth microdilution against clinical isolates and resistant isolates from a wide range of bacterial species, including isolates from the CDC Antibiotic Resistance bank, including the GN ESKAPE pathogens and E. coli, including carbapenem-resistant Enterobacteriaciae, Acinetobacter, and Pseudomonas.

[3] = test system: Gram-negative bacteria biofilm; test: Antibiofilm activity (MBEC) against Gram-negative bacteria, incl. MDR and XDR isolates; type: cell-based; settings: range of MDR and XDR isolates
[4] = test system: A. baumannii (ATCC BAA-747); test: microbe, parasite or virus in culture; type: cell-based, Acinetobacter baumannii
E. cloacae (ATCC 13047) = test: microbe, parasite or virus in culture; type: cell-based, Enterobacter cloacae
P. aeruginosa = test: GN370 time-kill assay, P. aeruginosa; type: cell-based, Pseudomonas aeruginosa; settings: for Log10 CFU/mL: P. aeruginosa PA25
Description: (§2) A kinetic analysis of GN370 bactericidal activity was performed using a time-kill assay format in which CFU reductions of each target organism (P. aeruginosa, K. pneumoniae, A. baumannii, E. coli, and E. cloacae) were measured over 24 hours at 37° C. […] Bactericidal activity was defined as CFU reductions of ≥3-log 10 CFU/mL as compared to the inoculum at the 24-hour time point.

K. pneumoniae [5] = test: GN370 time-kill assay, K. pneumoniae; type: cell-based, Klebsiella pneumoniae; settings: for Log10 CFU/mL: K. pneumoniae ATCC 700603
Description: as §2

E. coli [6] = test: GN370 time-kill assay, E. coli; type: cell-based, Escherichia coli; settings: for Log10 CFU/mL: E. coli AR-128
Description: as §2, with “point. See Methods for Determining Bactericidal Activity of Antimicrobial Agents; Approved Guideline, NCCLS document M26-A, CLSI 1999 (Wayne, PA).” for “point.”

E. coli (ATCC 25922) = test: microbe, parasite or virus in culture; type: cell-based, Escherichia coli
K. pneumoniae [7] = test: MBEC against K. pneumoniae biofilm; type: cell-based, Klebsiella pneumoniae; settings: MDR and XDR K. pneumoniae (11)
Burkholderia cepacia = test: MIC by broth microdilution against Burkholderia cepacia; type: cell-based; settings: N 9
Description: as §1

E. coli [8] = test: MBEC against E. coli biofilm; type: cell-based, Escherichia coli; settings: MDR and XDR E. coli (11)
[9] = test system: K. pneumoniae (1_1_5 HM-44); test: microbe, parasite or virus in culture; type: cell-based, Klebsiella pneumoniae
Klebsiella oxytoca = test: MIC by broth microdilution against Klebsiella oxytoca; type: cell-based; settings: N 1
Description: as §1

E. cloacae [10] = test: MIC by broth microdilution against E. cloacae; type: cell-based, Enterobacter cloacae
[11] = Enterobacter cloacae, AR Bank, N 7
[12] = Enterobacter cloacae, Weill Cornell, N 30
[13] = Enterobacter cloacae, all isolates, N 37

In the case of `C[C@@H](O)[C@H]1C(=O)N2C(C(=O)O)=C(S[C@@H]3CN[C@H](C(=O)N(C)C)C3)[C@H](C)[C@H]12` [meropenem, reference compound], the “FICI of the antibiotic with GN370” value (E. cloacae [1]) is reported as 0.531.

B1: GN370: lysin-AMP construct, SEQ ID NO: 149: MIDR, FIRL and NPTH moieties N-terminal to GN202 lysin (protein)
chain: MIDRFIRLNPTHGPRRPRRPGRRAPVRTSQRGIDLIKSFEGLRLSAYQDSVGVWTIGYGTTRGVTRYMTITVEQAERMLSNDIQRFEPELDRLAKVPLNQNQWDALMSFVYNLGAANLASSTLLDLLNKGDYQGAADQFPHWVNAGGKRLDGLVKRRAAERALFLEPLS
modifications: GN370 lysin
With B1 the “MIC Range” value [2] was 0.25 µg/mL, the MBEC [3] was at most 4 µg/mL and the “change in MIC over 28-day serial passage” value ([4]; A. baumannii (ATCC BAA-747)) was “No change”. The MIC ([4]; A. baumannii ATCC BAA-747, target organism of serial passage study) was 1 µg/mL, the “change in MIC over 28-day serial passage” value (E. cloacae (ATCC 13047); E. cloacae (ATCC 13047)) was at most 2 fold and the MIC (E. cloacae (ATCC 13047); E. cloacae ATCC 13047, target organism of serial passage study) was 1 µg/mL. The “Log10 CFU/mL” value (P. aeruginosa; 0.2x MIC, 1 hr) was 4.5 Log10 CFU/mL, the “Log10 CFU/mL” value (P. aeruginosa; 0.2x MIC, 3 hr) was 4.7 Log10 CFU/mL and the “Log10 CFU/mL” value (P. aeruginosa; 0.2x MIC, 24 hr) was 9.5 Log10 CFU/mL. The “Log10 CFU/mL” value (P. aeruginosa; 1x MIC, 1 hr) was 1.5 Log10 CFU/mL, the “Log10 CFU/mL” value (P. aeruginosa; 1x MIC, 3 hr) was 1.5 Log10 CFU/mL and the “Log10 CFU/mL” value (P. aeruginosa; 1x MIC, 24 hr) was 1.54 Log10 CFU/mL. For the same molecule, the “Log10 CFU/mL” value (P. aeruginosa; 2x MIC, 1 hr) was 1.5 Log10 CFU/mL, the “Log10 CFU/mL” value (P. aeruginosa; 2x MIC, 3 hr) was 1.5 Log10 CFU/mL and the “Log10 CFU/mL” value (P. aeruginosa; 2x MIC, 24 hr) was 1.5 Log10 CFU/mL. For the same molecule, the “Log10 CFU/mL” value (P. aeruginosa; 5x MIC, 1 hr) was 1.5 Log10 CFU/mL, the “Log10 CFU/mL” value (P. aeruginosa; 5x MIC, 3 hr) was 1.5 Log10 CFU/mL and the “Log10 CFU/mL” value (P. aeruginosa; 5x MIC, 24 hr) was 1.5 Log10 CFU/mL. For the same molecule, the “concentration with bactericidal activity (≥3-log 10 CFU/mL reduction at 24 hours)” value (P. aeruginosa; P. aeruginosa, 37° C.) was at least 1 ×MIC, the “Log10 CFU/mL” value (K. pneumoniae [5]; 0.2x MIC, 1 hr) was 5.2 Log10 CFU/mL and the “Log10 CFU/mL” value (K. pneumoniae [5]; 0.2x MIC, 3 hr) was 5.0 Log10 CFU/mL. The “Log10 CFU/mL” value (K. pneumoniae [5]; 0.2x MIC, 24 hr) was 8.5 Log10 CFU/mL, the “Log10 CFU/mL” value (K. pneumoniae [5]; 1x MIC, 1 hr) was 2.0 Log10 CFU/mL and the “Log10 CFU/mL” value (K. pneumoniae [5]; 1x MIC, 3 hr) was 1.5 Log10 CFU/mL. For the same molecule, the “Log10 CFU/mL” value (K. pneumoniae [5]; 1x MIC, 24 hr) was 1.5 Log10 CFU/mL, the “Log10 CFU/mL” value (K. pneumoniae [5]; 2x MIC, 1 hr) was 1.5 Log10 CFU/mL and the “Log10 CFU/mL” value (K. pneumoniae [5]; 2x MIC, 3 hr) was 1.5 Log10 CFU/mL. The “Log10 CFU/mL” value (K. pneumoniae [5]; 2x MIC, 24 hr) was 1.5 Log10 CFU/mL, the “Log10 CFU/mL” value (K. pneumoniae [5]; 5x MIC, 1 hr) was 1.5 Log10 CFU/mL and the “Log10 CFU/mL” value (K. pneumoniae [5]; 5x MIC, 3 hr) was 1.5 Log10 CFU/mL. For the same molecule, the “Log10 CFU/mL” value (K. pneumoniae [5]; 5x MIC, 24 hr) was 1.5 Log10 CFU/mL, the “concentration with bactericidal activity (≥3-log 10 CFU/mL reduction at 24 hours)” value (K. pneumoniae [5]; K. pneumoniae, 37° C.) was at least 1 ×MIC and the “Log10 CFU/mL” value (E. coli [6]; 0.2x MIC, 24 hr) was 8.4 Log10 CFU/mL. The “Log10 CFU/mL” value (E. coli [6]; 1x MIC, 1 hr) was 4.4 Log10 CFU/mL, the “Log10 CFU/mL” value (E. coli [6]; 1x MIC, 3 hr) was 2.5 Log10 CFU/mL and the “Log10 CFU/mL” value (E. coli [6]; 2x MIC, 1 hr) was 4.4 Log10 CFU/mL. The “Log10 CFU/mL” value (E. coli [6]; 2x MIC, 3 hr) was 2.2 Log10 CFU/mL, the “Log10 CFU/mL” value (E. coli [6]; 5x MIC, 1 hr) was 3.0 Log10 CFU/mL and the “concentration with bactericidal activity (≥3-log 10 CFU/mL reduction at 24 hours)” value (E. coli [6]; E. coli, 37° C.) was at least 1 ×MIC. For the same molecule, the “change in MIC over 28-day serial passage” value (E. coli (ATCC 25922); E. coli (ATCC 25922)) was “No change”, the MIC (E. coli (ATCC 25922); E. coli ATCC 25922, target organism of serial passage study) was 0.5 µg/mL and the MBEC50 (K. pneumoniae [7]) was 1 µg/mL. For the same molecule, the MBEC90 (K. pneumoniae [7]) was 2 µg/mL, the “MBEC Range” value (K. pneumoniae [7]) was 0.5 to 4 µg/mL and the “Number of isolates at MBEC 0.5 μg/mL” value (K. pneumoniae [7]) was 3. For the same molecule, the “Number of isolates at MBEC 1 μg/mL” value (K. pneumoniae [7]) was 3, the “Number of isolates at MBEC 2 μg/mL” value (K. pneumoniae [7]) was 4 and the “Number of isolates at MBEC 4 μg/mL” value (K. pneumoniae [7]) was 1. For the same molecule, the MIC50 (Burkholderia cepacia) was over 64 µg/mL, the MIC90 (Burkholderia cepacia) was over 64 µg/mL and the “MIC Range” value (Burkholderia cepacia) was over 64 µg/mL. For the same molecule, the MBEC50 (E. coli [8]) was 0.5 µg/mL, the MBEC90 (E. coli [8]) was 2 µg/mL and the “MBEC Range” value (E. coli [8]) was 0.25 to 2 µg/mL. The “Number of isolates at MBEC 0.5 μg/mL” value (E. coli [8]) was 5, the “Number of isolates at MBEC 1 μg/mL” value (E. coli [8]) was 2 and the “Number of isolates at MBEC 2 μg/mL” value (E. coli [8]) was 2. The “Number of isolates at MBEC […]” value (E. coli [8]) was 2, the MIC ([9]; K. pneumoniae 1_1_5_HM-44, target organism of serial passage study) was 2 µg/mL and the “change in MIC over 28-day serial passage” value ([9]; K. pneumoniae (1_1_5 HM-44)) was at most 2 fold. For the same molecule, the “change in MIC over 28-day serial passage” value ([9]; K. pneumoniae, another instance) was “no change”, the “MIC Range” value (Klebsiella oxytoca) was 4 µg/mL and the MIC (E. cloacae [10]; E. cloacae ATCC 13047 (head of Table 19)) was 2 µg/mL. For the same molecule, the MIC (E. cloacae [10]; E. cloacae ATCC 29941) was “(MIC = 2 μg/mL)”, the MIC90 (E. cloacae [10]; E. cloacae clinical and resistant isolates) was 4 µg/mL and the MIC50 (E. cloacae [10]; [11]) was 1 µg/mL. For the same molecule, the MIC90 (E. cloacae [10]; [11]) was 4 µg/mL, the “MIC Range” value (E. cloacae [10]; [11]) was 0.25 to 8 µg/mL and the MIC50 (E. cloacae [10]; [12]) was 2 µg/mL. For the same molecule, the MIC90 (E. cloacae [10]; [12]) was 4 µg/mL, the “MIC Range” value (E. cloacae [10]; [12]) was 0.25 to 8 µg/mL and the MIC50 (E. cloacae [10]; [13]) was 1 µg/mL. For the same molecule, the MIC90 (E. cloacae [10]; [13]) was 4 µg/mL and the “MIC Range” value (E. cloacae [10]; [13]) was 0.016 to 8 µg/mL.
